In EP4653461A1 (DE NOVO BIOTHERAPEUTICS CO., LTD., dated 2025):
Like-named read-outs stand apart in the source and are kept apart here.

Tests used:
[1] = biological target: T1, 6506GJ130-1A: Human NKP46 Recombinant Protein (His) (human, UniProt O76036 22-258, limits assumed); assay: SPR, Biacore 8K; reference 2-5
T1 construct: also called human NKp46 protein; not shown: His tag

[2] = biological target: T1, 6506GJ130-1A: Human NKP46 Recombinant …; assay: SPR, Biacore 8K, antibody captured on Protein A chip, NKp46 as analyte
[3] = biological target: T1, 6506GJ130-1A: Human NKP46 Recombinant …; assay: as above; remark: listed apart in the source
[4] = biological target: T1, 6506GJ130-1A: Human NKP46 Recombinant …; assay: SPR, Biacore 8K; reference 2-3
[5] = biological target: T1, 6506GJ130-1A: Human NKP46 Recombinant …; assay: competition ELISA, NKp46-His coated; competitor 1-10 at 20 ug/ml
[6] = biological target: T1, 6506GJ130-1A: Human NKP46 Recombinant …; assay: competition ELISA, NKp46-His coated; competitor 2-1 at 20 ug/ml
[7] = biological target: T1, 6506GJ130-1A: Human NKP46 Recombinant …; assay: competition ELISA, NKp46-His coated; competitor 2-3 at 20 ug/ml
[8] = biological target: T1, 6506GJ130-1A: Human NKP46 Recombinant …; assay: competition ELISA, NKp46-His coated; competitor 1-4-2 at 20 ug/ml
[9] = biological target: T1, 6506GJ130-1A: Human NKP46 Recombinant …; assay: competition ELISA, NKp46-His coated; competitor 1-2 at 20 ug/ml
[10] = biological target: T1, 6506GJ130-1A: Human NKP46 Recombinant …; assay: competition ELISA, NKp46-His coated; competitor 2-10 at 20 ug/ml
[11] = biological target: T1, 6506GJ130-1A: Human NKP46 Recombinant …; assay: competition ELISA, NKp46-His coated; competitor 2-5 at 20 ug/ml
[12] = biological target: T1, 6506GJ130-1A: Human NKP46 Recombinant …; assay: competition ELISA, NKp46-His coated; no competitor (Control)
[13] = biological target: T1, 6506GJ130-1A: Human NKP46 Recombinant …; assay: competition ELISA, NKp46-His coated; competitor 2-2 at 20 ug/ml
[14] = biological target: T1, 6506GJ130-1A: Human NKP46 Recombinant …; assay: competition ELISA, NKp46-His coated; competitor 1-8 at 20 ug/ml
[15] = biological target: T1, 6506GJ130-1A: Human NKP46 Recombinant …; assay: competition ELISA, NKp46-His coated; competitor 2-7 at 20 ug/ml
[16] = biological target: T1, 6506GJ130-1A: Human NKP46 Recombinant …; assay: SPR, Biacore 8K; reference 1-2

T1 sequence (O76036 22-258 limits assumed): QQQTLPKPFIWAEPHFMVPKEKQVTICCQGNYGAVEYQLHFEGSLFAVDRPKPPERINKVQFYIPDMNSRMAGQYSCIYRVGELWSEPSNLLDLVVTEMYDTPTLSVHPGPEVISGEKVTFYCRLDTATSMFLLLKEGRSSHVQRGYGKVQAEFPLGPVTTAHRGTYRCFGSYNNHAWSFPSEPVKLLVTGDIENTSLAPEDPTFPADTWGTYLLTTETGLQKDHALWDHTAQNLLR

Binder	fold change of KD against the unhumanized antibody [1]	Kd [2]	koff [2]	kon [2]	Kd [3]	fold change of KD against the unhumanized antibody [4]	ELISA signal [5]	ELISA signal [6]	ELISA signal [7]	ELISA signal [8]	ELISA signal [9]	ELISA signal [10]	ELISA signal [11]	ELISA signal [12]	ELISA signal [13]	ELISA signal [14]	ELISA signal [15]	fold change of KD against the unhumanized antibody [16]
28E10B12 (2-3) (antibody, IgG4, V domains shown, Hybridoma clone; made as mouse/human chimeric IgG4) VH: QVQLQQPGAELVKPGASVKLSCKASGYTFTSYWMNWVKQRPGQGLEWIGMIHPNSDITNYNEKFKSQATLTVDKSSSTAYMQLSSLTSEDSAVYYCARHGRFDYWGQGTTLTVSS VL: DIQMTQSPSSLSASLGERVTLTCRASQDIGSSLNWLQQEPDGTIKRLIYATSSLDSGVPKRFSGSRSGSDYSLTISSLESEDFVDYYCLQYASSPFTFGSGTKLEIK	–	0.244 nM	0.000136 s⁻¹	555000 M⁻¹ s⁻¹	0.24 to 30 nM	–	0.408	0.649	0.105	1.09	1.24	0.173	1.43	1.38	0.16	1.43	0.2	–
Hu 1-2 (antibody, V domains shown, Humanized form of 1-2; also called humanized 1-2) VH: QVQLVQSGAEVKKPGASVKVSCKASGYTFTDYYLNWVRQAPGQGLEWIGDIDPHNAGTSYNQKFKDRVTMTVDTSTSTVYMELSSLRSEDTAVYYCARFPIYYSGSSPMDYWGQGTLVTVSS VL: DIQMTQSPSSLSASVGDRVTITCRTNENIFSYLAWYQQKPGKAPKLLIYNAKTLAEGVPSRFSGSGSGTDFTLTISSLQPEDFATYYCQHHYGTPYTFGGGTKLEIK	–	8.66 nM	0.000118 s⁻¹	13700 M⁻¹ s⁻¹	0.42 to 8.7 nM	–	–	–	–	–	–	–	–	–	–	–	–	≤ 2 fold

Other lines, results leading:

fold change of KD against the unhumanized antibody [1]	Kd [2]	koff [2]	kon [2]	Kd [3]	fold change of KD against the unhumanized antibody [4]	ELISA signal [5]	ELISA signal [6]	ELISA signal [7]	ELISA signal [8]	ELISA signal [9]	ELISA signal [10]	ELISA signal [11]	ELISA signal [12]	ELISA signal [13]	ELISA signal [14]	ELISA signal [15]	fold change of KD against the unhumanized antibody [16]	Binder
≤ 2 fold	3.83 nM	7.05e-05 s⁻¹	18400 M⁻¹ s⁻¹	–	–	–	–	–	–	–	–	–	–	–	–	–	–	Hu 2-5 (antibody, V domains shown, Humanized form of 2-5; also called humanized 2-5) VH: QVQLQESGPGLVKPSQTLSLTCTVSGYSITSDDYWNWIRQPPGKGLEWIGYISYEGSNNYNPSLKNRVTISRDTSKNQFSLKLSSVTAADTAVYYCARLGYPAMDAWGQGTLVTVSS VL: DIQMTQSPSSLSASVGDRVTITCKASQDINSYLSWFQQKPGKAPKSLIYRANRLVDGVPSRFSGSGSGTDYTLTISSLQPEDFATYYCLQYDEFPWTFGGGTKLEIK
–	0.421 nM	0.000138 s⁻¹	328000 M⁻¹ s⁻¹	0.42 to 8.7 nM	≤ 2 fold	–	–	–	–	–	–	–	–	–	–	–	–	Hu 2-3 (antibody, V domains shown, Humanized form of 2-3; also called humanized 2-3) VH: QVQLVQSGAEVKKPGASVKVSCKASGYTFTSYWMNWVRQAPGQGLEWIGMIHPNSDITNYNEKFKSRVTMTVDTSTSTVYMELSSLRSEDTAVYYCARHGRFDYWGQGTTVTVSS VL: DIQMTQSPSSLSASVGDRVTITCRASQDIGSSLNWLQQKPGKAPKRLIYATSSLDAGVPKRFSGSGSGTDYTLTISSLQPEDFATYYCLQYASSPFTFGGGTKLEIK
